# T1: Tse15 central Rhs domain (residues 335-1395) (Acinetobacter baumannii (strain …, UniProt A0A5K6CSR3 335-1395))
# T1 construct: Tse15, A. baumannii AB307-0294, central Rhs domain, residues 335-1395; also called Rhs cage; β-cocoon
# T1 sequence: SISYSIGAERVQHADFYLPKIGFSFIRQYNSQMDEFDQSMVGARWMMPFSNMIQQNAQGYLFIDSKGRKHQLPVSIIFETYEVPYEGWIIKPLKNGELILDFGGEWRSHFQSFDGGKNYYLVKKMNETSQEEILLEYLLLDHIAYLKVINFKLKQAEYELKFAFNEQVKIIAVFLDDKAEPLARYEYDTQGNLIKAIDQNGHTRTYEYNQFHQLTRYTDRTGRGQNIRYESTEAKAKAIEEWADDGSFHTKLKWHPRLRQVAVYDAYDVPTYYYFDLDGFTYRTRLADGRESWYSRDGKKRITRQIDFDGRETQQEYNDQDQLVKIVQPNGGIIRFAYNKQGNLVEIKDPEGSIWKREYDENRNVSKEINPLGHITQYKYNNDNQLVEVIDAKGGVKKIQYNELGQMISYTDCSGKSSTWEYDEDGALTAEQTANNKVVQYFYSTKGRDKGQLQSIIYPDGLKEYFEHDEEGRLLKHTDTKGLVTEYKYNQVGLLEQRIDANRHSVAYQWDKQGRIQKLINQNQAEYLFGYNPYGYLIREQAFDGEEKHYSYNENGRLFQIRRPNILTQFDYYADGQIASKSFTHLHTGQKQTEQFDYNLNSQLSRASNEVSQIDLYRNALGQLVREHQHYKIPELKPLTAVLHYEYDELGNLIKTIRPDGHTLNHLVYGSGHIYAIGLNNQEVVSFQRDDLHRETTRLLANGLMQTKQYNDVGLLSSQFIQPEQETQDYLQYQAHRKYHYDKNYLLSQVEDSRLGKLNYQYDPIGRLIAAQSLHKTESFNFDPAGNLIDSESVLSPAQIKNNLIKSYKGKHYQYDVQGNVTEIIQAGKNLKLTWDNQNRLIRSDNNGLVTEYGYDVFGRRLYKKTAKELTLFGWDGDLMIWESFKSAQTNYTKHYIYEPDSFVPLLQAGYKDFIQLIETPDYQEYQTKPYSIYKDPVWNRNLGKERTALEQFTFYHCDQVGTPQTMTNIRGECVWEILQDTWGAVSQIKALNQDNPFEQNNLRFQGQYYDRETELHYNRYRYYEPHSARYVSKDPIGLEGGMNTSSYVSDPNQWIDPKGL
# B1: Tse15 toxic C-terminal domain (residues 1396-1590) (domain or fragment)
# chain: NSFNYGEMFGIPASAQSGLAYQGQRNYECYAETGELCKIKVPPLFDYVACSGGGLGIGVGFVKNQWTGEYYISGSKDSLLIPVAKSVAQNKQFSAKDLAGASCVGGNIHNIPSYTKTTMTMGEITNEFVSGASVTVGGGAYGAVANVVVPLVSKSSPVKGTWASELGVGTPGFNVGVSGTVSVDTILDAVKPSKK
# notes: Tse15, A. baumannii AB307-0294, toxic CTD, residues 1396-1590; also called CTD; toxin domain; not shown: His6, C-terminal, kept
# B2: Tse15 N-terminal clade domain (residues 1-334) (domain or fragment)
# chain: MAKENTQQKEIKRQPAVELAVFNLNSVTDVADLQMIASQVQLYLQVCGNTTLEQIKSKANITTVANIFALTGSVLDLMLYATDKKTGDAAVQRGALLAANLIGLFSEPNNEAHARMALRPMFGLMAECLYRENGKIKETDIKRLGLHLNAMIAGDLENFLKETQAKLSSLLISATTLGVTILQSMATPATGINAGITTAAGASAEKRDPKLKFTNWAVPLIDLLGKPSQANLTPKIQPNITSRLQQEATQAIAALSQTLQQQANAGQKYTLAWLLQETLKAIQALENKGNASVPINQTGEYERHTKGDTLEFVSLQADALNAPPCEGADSQSGK
# notes: Tse15, A. baumannii AB307-0294, N-terminal clade domain, residues 1-334; Residues 14-333 are modelled in the structure; also called N-terminal clade-specific domain; not shown: StrepTag-II, N-terminal, kept
# Tests used:
# [1] = target: B2; test: pull-down + SEC; nickel affinity (HisTrap HP) from E. coli lysate by the His tag that only the CTD carries, then analytical size-exclusion (Superdex200 10/300 GL Increase, 50 mM Hepes pH 8.0, 0.3 M NaCl); fragments identified by SDS-PAGE, Western blot, peptide fingerprinting and N-terminal sequencing; details: partners not purified
# [2] = target: T1, Tse15 central Rhs domain (residues …); test: as above; details: partners not purified
# [3] = target: T1, Tse15 central Rhs domain (residues …); test: cryo-EM structure; single particle cryo-EM of purified protein, 3 mg/mL, UltrAuFoil grids; Tse15 at 200 kV (Talos Arctica), Tse15NN at 300 kV (Titan Krios); details: both partners purified
binder,measurement,setting,value
B1,binding result,[1],binds
same,binding result,[2],binds
B2,binding result,[3],binds

# Source: PMC11461821, “Structure of a Rhs effector clade domain provides mechanistic insights into type VI secretion system toxin delivery” (Nature Communications, 2024)
